Laboratory results taken from patent publication US20200199244A1 (published 2020).
Several values for one entry are separate records, joined by “and”; a condition that tells them apart may be missing. Equal values may be shown once.

T1: human CD40 (H76R, W109L, L121P) Fc fusion (human)
T1 construct: Same construct as wt-hCD40 with H76R, W109L and L121P; also called hCD40-M5; hCD40-M5 (H76R, W109L, L121P); not shown: human IgG1 Fc
T1 chain: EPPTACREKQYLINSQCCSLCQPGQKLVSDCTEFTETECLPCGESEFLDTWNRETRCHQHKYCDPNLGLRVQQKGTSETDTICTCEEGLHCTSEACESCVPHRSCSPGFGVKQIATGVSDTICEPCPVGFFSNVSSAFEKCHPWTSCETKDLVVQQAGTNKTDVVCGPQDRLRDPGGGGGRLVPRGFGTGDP

T2: wild type cynomolgus monkey CD40 Fc fusion (cynomolgus monkey (Macaca …))
T2 construct: also called wt-cCD40; wt-cyno-CD40; not shown: human IgG1 Fc
T2 chain: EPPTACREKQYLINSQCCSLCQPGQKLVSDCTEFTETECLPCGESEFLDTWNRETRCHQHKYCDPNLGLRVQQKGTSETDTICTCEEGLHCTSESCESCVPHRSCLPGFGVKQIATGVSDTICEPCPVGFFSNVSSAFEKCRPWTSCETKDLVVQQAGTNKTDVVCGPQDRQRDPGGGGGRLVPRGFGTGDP

T3: wild type cynomolgus monkey CD40 Fc fusion (cynomolgus monkey (Macaca …))
T3 construct: also called wt-cyno-CD40; wt-cCD40; not shown: human IgG1 Fc
T3 chain: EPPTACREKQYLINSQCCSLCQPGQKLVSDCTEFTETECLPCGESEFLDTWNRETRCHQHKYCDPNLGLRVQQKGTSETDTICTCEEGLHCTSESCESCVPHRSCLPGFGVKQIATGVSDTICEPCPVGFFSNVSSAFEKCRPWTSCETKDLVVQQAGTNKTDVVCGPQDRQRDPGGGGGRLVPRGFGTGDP

T4: human CD40 (H76R, W109L, L121P) Fc fusion (human)
T4 construct: Made by site-directed mutagenesis of the wild type construct; no cleavage site is stated; also called hCD40-M5; hCD40-M5 (H76R, W109L, L121P); not shown: human IgG1 Fc
T4 chain: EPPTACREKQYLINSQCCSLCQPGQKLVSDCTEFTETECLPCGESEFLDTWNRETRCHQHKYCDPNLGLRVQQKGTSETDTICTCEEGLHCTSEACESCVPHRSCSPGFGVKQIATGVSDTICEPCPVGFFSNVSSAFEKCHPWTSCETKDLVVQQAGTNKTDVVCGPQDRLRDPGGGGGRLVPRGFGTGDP


How the values were obtained:
[1] = target: T5, human CD40 (W109R) Fc fusion (Chimpanzee CD40) (human, UniProt P25942 21-193); assay: SPR, ProteOn XPR36; CD40-Fc captured, dAb analyte
T5 construct: Same construct as wt-hCD40 with W109R (the residue of chimpanzee CD40); also called hCD40-M3; hCD40 M3 (W109R); not shown: human IgG1 Fc

[2] = target: T6, human CD40 (W109L, L121P) Fc fusion (human, UniProt P25942 21-193); assay: SPR, ProteOn XPR36; CD40-Fc captured, dAb analyte
T6 construct: Same construct as wt-hCD40 with W109L and L121P; also called hCD40-M4; hCD40 M4 (W109L, L121P); not shown: human IgG1 Fc

[3] = target: T1, human CD40 (H76R, W109L, L121P) Fc …; assay: SPR, ProteOn XPR36; CD40-Fc captured, dAb analyte
Procedure: (§1) Assays were performed on a BioRad ProteOn XPR36 SPR instrument. The SPR surfaces were prepared by immobilizing 8 μg/ml anti-human IgG(Fc) antibody (Biacore/GE Healthcare) in 10 mM sodium acetate pH 4.5 on a BioRad GLC sensor chip using standard ethyl(dimethylaminopropyl) carbodiimide (EDC)/N-hydroxysuccinimide (NHS) chemistry, with ethanolamine blocking. The running buffer for immobilization and kinetic binding analysis was 10 mM sodium phosphate, 130 mM sodium chloride, 0.05% tween 20, pH 7.1. CD40-Fc fusion proteins at concentrations of 20 μg/ml were captured in the vertical orientation on these surfaces via the Fc tail, and reference surfaces lacking CD40-Fc proteins were used for reference subtraction. […] The surfaces were regenerated in both horizontal and vertical orientations with 30 s pulses of 3 M MgCl₂ followed by running buffer at 60 μl/min. Sensogram data was double-referenced and then fitted to a 1:1 Langmuir model using BioRad ProteOn Manager V.2.1.0.38 software, to determine the association rate constant (ka), the dissociation rate constant (kd), and the equilibrium dissociation constant (KD).

[4] = target: T2, wild type cynomolgus monkey CD40 Fc …; assay: SPR, ProteOn XPR36; CD40-Fc captured, dAb analyte
Procedure: as §1

[5] = target: T7, wild type human CD40 Fc fusion (human, UniProt P25942 21-193); assay: SPR, ProteOn XPR36; CD40-Fc captured, dAb analyte; 1:1 fit;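 as to Kd: CD40-Fc captured on anti-human IgG(Fc) surface of a GLC chip, buffer pH 7.1, sensorgrams double-referenced against surfaces without CD40-Fc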;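 as to koff: CD40-Fc captured on anti-human IgG(Fc) surface of a GLC chip, buffer pH 7.1, sensorgrams double-referenced against surfaces without CD40-Fc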;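 as to kon: CD40-Fc captured on anti-human IgG(Fc) surface of a GLC chip, buffer pH 7.1, sensorgrams double-referenced against surfaces without CD40-Fc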
T7 construct: also called wt-hCD40; not shown: human IgG1 Fc

[6] = target: T8, human CD40 (H76R) Fc fusion (human, UniProt P25942 21-193); assay: as above
T8 construct: also called hCD40-M1; hCD40 M1 (H76R); not shown: human IgG1 Fc

[7] = target: T7, wild type human CD40 Fc fusion; assay: SPR, ProteOn XPR36; CD40-Fc captured, dAb analyte; 1:1 fit; repeat
Procedure: as §1

[8] = target: T3, wild type cynomolgus monkey CD40 Fc …; assay: SPR (ProteOn XPR36), CD40-Fc captured via anti-human IgG(Fc), dAb as analyte, 25 C
Procedure: as §1

[9] = target: T9, human CD40 (W109L, L121P) Fc fusion (human, UniProt P25942 21-193); assay: as above
T9 construct: Made by site-directed mutagenesis of the wild type construct; no cleavage site is stated; also called hCD40-M4; hCD40 M4 (W109L, L121P); not shown: human IgG1 Fc

[10] = target: T4, human CD40 (H76R, W109L, L121P) Fc …; assay: as above
Procedure: as §1

[11] = target: T10, human CD40 (BMS, CY24FEB06-01) (human, UniProt P25942 21-193); assay: ELISA RBA, competition with IZ-CD40L
T10 construct: Soluble reagent of the bead and ELISA RBA; It is detected with an anti-human IgG (Fc) mAb, so it may be a CD40-Ig fusion
Procedure: Clear walled High Bind, 384-well plates (Corning, UK) were coated with 25 μl of 1 μg/ml Neutravidin in 0.2 M carbonate-bicarbonate buffer, pH 9.4 overnight at 4° C. The following day, assay plates were washed with 0.1% (v/v) Tween PBS buffer, blocked with 1% (w/v) BSA in PBS for 1 hour at room temperature and washed again. […] Following washing of the assay plate, the dAb:human CD40 complex was incubated in the assay plate at room temperature for 2 hours with gentle agitation. […] Absorbance signal was measured using a SpectraMax® M5e plate reader (Molecular Devices) at 450 nm following neutralization with 1M HCl solution.

Binder	Kd [5] [nM]	koff [5] [s⁻¹]	kon [5] [M⁻¹ s⁻¹]	Kd [6] [nM]	koff [6] [s⁻¹]	kon [6] [M⁻¹ s⁻¹]	Kd [7] [nM]	koff [7] [s⁻¹]	kon [7] [M⁻¹ s⁻¹]	EC50 [11]	binding result [1]	binding result [2]	binding result [3]	binding result [4]	binding result [8]	binding result [9]	binding result [10]
BMS3h-37-2 (other, Anti-human CD40 domain antibody (dAb), single VH domain) VH: EVQLLESGGGLVQPGGSLRLSCAASGFTFEWYEMQWVRRAPGKGLEWVSAISGDGYRTYYADSVKGRFTISRDNSKNTLYLQMNSLRAEDTAVYYCAKELGYFDYWGRGTLVTVSS	1.96	0.000417	212000	2.58	0.000562	217000	2	0.000426	213000		no binding (tested: dAb tested up to 405 nM)	no binding (tested: dAb tested up to 405 nM)	no binding (tested: dAb tested up to 405 nM)	no binding (tested: dAb tested up to 405 nM)			
BMS3h-56-2 (other, Anti-human CD40 domain antibody (dAb), a single human VH domain) VH: EVQLLESGGGLVQPGGSLRLSCAASGFTFRDYEMWWVRQAPGKGLERVSAINPQGTRTYYADSVKGRFTISRDNSKNTLYLQMNSLRAEDTAVYYCAKLPFTFDDWGQGTLVTVSS															no binding (tested: 405 nM (highest dAb concentration))		
BMS3h-56-5 (other, Anti-human CD40 domain antibody (dAb), a single human VH domain) VH: EVQLLESGGGLVQPGGSLRLSCAASGFTFRDYEMWWVRQAPGKGLERVSAINPQGTRTYYADSVMGRFTISRDNSKNTLYLQMNSLRAEDTAVYYCAKLPFTFDDWGQGTLVTVSS															no binding (tested: 405 nM (highest dAb concentration))	no binding (tested: 405 nM (highest dAb concentration))	no binding (tested: 405 nM (highest dAb concentration))
BMS3h-56-206 (other, Anti-human CD40 domain antibody (dAb), a single human VH domain) VH: EVQLLESGGGLVQPGGSLRLSCAASGFTFRDYEMWWVRQAPGKGLERVSAINPQGTRTYYADSVKGRFTISRDNSKNTLYLQMNSLRAEDTAVYHCAKLPMFFEDWGQGTLVTVSN															no binding (tested: 405 nM (highest dAb concentration))	no binding (tested: 405 nM (highest dAb concentration))	no binding (tested: 405 nM (highest dAb concentration))
BMS3h-56-202 (other, Anti-human CD40 domain antibody (dAb), a single human VH domain) VH: EVQLLESGGGLVQPGGSLRLSCAASGFTFRDYEMWWVRQAPGKGLERVSAINPQGTRTYYADSVKGRFTISRDNSKNTLYLQMNSLRAEDTAVYYCAKLPTYFSDRGQGTLVTVSS															no binding (tested: 405 nM (highest dAb concentration))	no binding (tested: 405 nM (highest dAb concentration))	no binding (tested: 405 nM (highest dAb concentration))
BMS3h-233 (other, dAb, single VH) VH: EVQLLESGGGLVQPGGSLRLSCAASGFTFAHYNMRWVRQAPGKGLEWVSTITKTGFRTYYADSVKGRFTISRDNSKNTLYLQMNSLRAEDTAVYYCAKAGQFDFDYWGQGTLVTVSS										2770 nM							
BMS3h-257 (other, dAb, single VH) VH: EVQLLESGGGLVQPGGSLRLSCAASGFTFQNYQMAWVRQAPGKGLEWVSTISGTGKNTYYADSVKGRFTISRDNSKNTLYLQMNSLRAEDTAVYYCAKTPQNYFSVRRFDYWGQGTLVTVSS										3210 nM and 1340 nM							
BMS3h-231 (other, dAb, single VH) VH: EVQLLESGGGLVQPGGSLRLSCAASGFTFSAYNMWWARQAPGKGLEWVSWINSTGSRTYYADSVKGRFTISRDNSKNTLYLQMNSLRAEDTAVYYCAKNWHRGRFDYWGQGTLVTVSS										670 nM and 870 nM							

More lines, main results first:

Kd [5] [nM]	koff [5] [s⁻¹]	kon [5] [M⁻¹ s⁻¹]	Kd [6] [nM]	koff [6] [s⁻¹]	kon [6] [M⁻¹ s⁻¹]	Kd [7] [nM]	koff [7] [s⁻¹]	kon [7] [M⁻¹ s⁻¹]	EC50 [11]	Binder	binding result [1]	binding result [2]	binding result [3]	binding result [4]	binding result [8]	binding result [9]	binding result [10]
1.92	0.00056	291000	2.39	0.000717	300000	2.28	0.00064	281000		BMS3h-37-11 (other, Anti-human CD40 domain antibody (dAb), single VH domain) VH: EVQLLESGGGLVQPGGSLRLSCAASGFTFEWYEMQWVRKAPGKGLEWVSAISGDGYRTYYADSVKGRFTISRDNSKNTLYLQMNSLRAEDTAVYYCAKELGYFDYRGRGTLVTVSS	no binding (tested: dAb tested up to 405 nM)	no binding (tested: dAb tested up to 405 nM)	no binding (tested: dAb tested up to 405 nM)	no binding (tested: dAb tested up to 405 nM)			
									> 10000 nM and 6760 nM	BMS3h-287 (other, dAb, single VH) VH: EVQLLESGGGLVQPGGSLRLSCAASGFTFTNYRMSWVRQAPGKGLEWVSAIDDLGVSTYYADSVKGRFTISRDNSKNTLYLQMNSLRAEDTAVYYCAKWRLKNSQPTDFDYWGQGTLVTVSS							
3.26	0.000362	111000	3.98	0.00051	128000	6.08	0.000728	120000		BMS3h-38-211 (other, Anti-human CD40 domain antibody (dAb), single VH domain) VH: EVQLLASGGGLVQPGGSLRLSCAASGFTFEEEEMIWVRQAPGKGLEWVSAISRQGGSTYYADSVKGRFTISRDNSKNTLYLQMNSLRAEDTAVYYCGKEPFRYDYWGQGTLVTVSS	no binding (tested: dAb tested up to 405 nM)	no binding (tested: dAb tested up to 405 nM)	no binding (tested: dAb tested up to 405 nM)	no binding (tested: dAb tested up to 405 nM)			
2.34	0.000296	127000	3.41	0.000481	141000	2.37	0.00034	144000		BMS3h-38-217 (other, Anti-human CD40 domain antibody (dAb), single VH domain) VH: EVQLLASGGGLVQPGGSLRLSCAASGFTFEEEEMIWVRQAPGKGLEWVSAISRRGYSTYYADSVKGRFTISRDNSKNTLYLQMNSLRAEDTAVYYCGKEPFRYDYWGQGTLVTVSS	no binding (tested: dAb tested up to 405 nM)	no binding (tested: dAb tested up to 405 nM)	no binding (tested: dAb tested up to 405 nM)	no binding (tested: dAb tested up to 405 nM)			
2.1	0.000288	137000	3.03	0.00053	175000	6.02	0.00082	136000		BMS3h-38-215 (other, Anti-human CD40 domain antibody (dAb), single VH domain) VH: EVQLLASGGGLVQPGGSLRLSCAASGFTFEEEEMIWVRQAPGKGLEWVSAISGLGWSTYYADSVKGRFTISRDNSKNTLYLQMNSLRAEDTAVYYCGKEPFRYDYWGQGTLVTVSS	no binding (tested: dAb tested up to 405 nM)	no binding (tested: dAb tested up to 405 nM)	no binding (tested: dAb tested up to 405 nM)	no binding (tested: dAb tested up to 405 nM)			
